B1: FBXO3 (parent)
chain: GGFPIIRDQIFRYVHDPECVATTG
B2: CCDC70 (parent)
chain: FSFKVSRWMGLACFRSLAASSPSI
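Note: lentivirally expressed fusions sorted by FACS into six bins by GFP to DsRed ratio, PSI derived from sequencing read proportions per bin multiplied by bin number.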

Variants of B1 are the subject of one data set. As to the kind of experiment: protein stability index of a GFP-peptide fusion (GPS, HEK-293T) (PSI 1-6); higher = more stable. The note with it: c terminus: a fixed tail appended.
As for VGFPIIRDQIFRYVHDPECVATTG [G1V], the protein stability index was 1.79.

As for EGFPIIRDQIFRYVHDPECVATTG [G1E], the protein stability index is 2.6.

In the case of RGFPIIRDQIFRYVHDPECVATTG [G1R], the protein stability index turned out to be 2.16.

For the variant LGFPIIRDQIFRYVHDPECVATTG [G1L], the protein stability index came to 1.64.

MGFPIIRDQIFRYVHDPECVATTG [G1M]: the protein stability index turned out to be 1.64.

As for HGFPIIRDQIFRYVHDPECVATTG [G1H], the protein stability index is 2.02.

For NGFPIIRDQIFRYVHDPECVATTG [G1N], the protein stability index is 2.4.

Turning to YGFPIIRDQIFRYVHDPECVATTG [G1Y], the protein stability index was determined as 1.55.

Regarding QGFPIIRDQIFRYVHDPECVATTG [G1Q], the protein stability index is 2.15.

Regarding FGFPIIRDQIFRYVHDPECVATTG [G1F], the protein stability index worked out at 1.55.

In the case of IGFPIIRDQIFRYVHDPECVATTG [G1I], the protein stability index stood at 2.05.

Turning to CGFPIIRDQIFRYVHDPECVATTG [G1C], the protein stability index amounted to 1.21.

With KGFPIIRDQIFRYVHDPECVATTG [G1K], the protein stability index was 2.15.

As for SGFPIIRDQIFRYVHDPECVATTG [G1S], the protein stability index is 2.01.

AGFPIIRDQIFRYVHDPECVATTG [G1A]: the protein stability index worked out at 2.29.

As to GGFPIGRDQIFRYVHDPECVATTG [I6G], the protein stability index stood at 2.23.

For GGFPIMRDQIFRYVHDPECVATTG [I6M], the protein stability index was 1.46.

Turning to GGFPIRRDQIFRYVHDPECVATTG [I6R], the protein stability index turned out to be 2.13.

Turning to GGFPIDRDQIFRYVHDPECVATTG [I6D], the protein stability index is 3.56.

Regarding GGFPISRDQIFRYVHDPECVATTG [I6S], the protein stability index was found to be 2.44.

Turning to GGFPIWRDQIFRYVHDPECVATTG [I6W], the protein stability index is 1.82.

For GGFPIHRDQIFRYVHDPECVATTG [I6H], the protein stability index is 2.32.

Regarding GGFPIQRDQIFRYVHDPECVATTG [I6Q], the protein stability index was 2.69.

In the case of GGFPIFRDQIFRYVHDPECVATTG [I6F], the protein stability index amounted to 1.46.

As to GGFPICRDQIFRYVHDPECVATTG [I6C], the protein stability index is 1.96.

On to GGFPITRDQIFRYVHDPECVATTG [I6T], for which the protein stability index came to 2.76.

With GGFPINRDQIFRYVHDPECVATTG [I6N], the protein stability index was 2.34.

As for GGFPILRDQIFRYVHDPECVATTG [I6L], the protein stability index worked out at 2.16.

Turning to GGFPIPRDQIFRYVHDPECVATTG [I6P], the protein stability index amounted to 2.35.

On to GGFPIERDQIFRYVHDPECVATTG [I6E], for which the protein stability index stood at 3.52.

For GGFPIYRDQIFRYVHDPECVATTG [I6Y], the protein stability index amounted to 1.99.

Turning to GGFPIKRDQIFRYVHDPECVATTG [I6K], the protein stability index is 2.52.

For the variant GGFPIARDQIFRYVHDPECVATTG [I6A], the protein stability index came out at 2.57.

For the variant GGFPIVRDQIFRYVHDPECVATTG [I6V], the protein stability index is 1.61.

Variants of B2 are the subject of a further data set. The data set is described as above. The note with it: c terminus: a fixed tail appended.
On to FSFKVSRWMGPACFRSLAASSPSI [L11P], for which the protein stability index is 2.72.

With FSFYVSRWMGLACFRSLAASSPSI [K4Y], the protein stability index worked out at 3.24.

With FSFNVSRWMGLACFRSLAASSPSI [K4N], the protein stability index came out at 2.51.

As to FSNKVSRWMGLACFRSLAASSPSI [F3N], the protein stability index stood at 2.5.

As for FSIKVSRWMGLACFRSLAASSPSI [F3I], the protein stability index was 2.92.

For the variant FSFKVSRWMGLACDRSLAASSPSI [F14D], the protein stability index turned out to be 2.84.

As to FSFKVSRWMGLACRRSLAASSPSI [F14R], the protein stability index came out at 4.52.

For the variant FSFKVSRWMNLACFRSLAASSPSI [G10N], the protein stability index is 3.79.

For FSFKVSRWMGLACFRSLAASSPYI [S23Y], the protein stability index is 2.1.

With FSFKVSRWMGLACFRSLAASSPHI [S23H], the protein stability index is 1.65.

Take FSFKVSRWMGLACFRSLAASDPSI [S21D]: the protein stability index was 2.8.

Take FSFKVSRWMGLACFRSLAASLPSI [S21L]: the protein stability index was determined as 3.55.

For FSFKVSRWMGLACFRSLAASSPSS [I24S], the protein stability index is 2.06.

Regarding FSFKVSRWMGLACFRSLAASSPSM [I24M], the protein stability index was 2.23.

As for FSFKVSRWMGLACFRSLAASSPSP [I24P], the protein stability index stood at 1.41.

As for FSFKVSRWMGLACFRSLAASSPSC [I24C], the protein stability index was determined as 1.94.

Take FSFKVSRWMGLACFRSLAACSPSI [S20C]: the protein stability index came to 3.42.

On to FSFKVSRWMGLACFRSLAAKSPSI [S20K], for which the protein stability index turned out to be 3.32.

Take FSFKVSRWMGLACFRSLAAASPSI [S20A]: the protein stability index stood at 3.7.

As to FSFKVSRWMGLACFRSLAAISPSI [S20I], the protein stability index was found to be 3.96.

As for FSFKVSRWMGLACFRSLAAPSPSI [S20P], the protein stability index was 1.35.

Regarding FSFKVSRWMGLACFRSLSASSPSI [A18S], the protein stability index came to 2.69.

Take FSFKVSRWMGLACFRSLVASSPSI [A18V]: the protein stability index was 2.58.

With FSFKVSRWMGLACFRSLRASSPSI [A18R], the protein stability index was 2.21.

In the case of FSFKVSRWMGLACFHSLAASSPSI [R15H], the protein stability index came out at 3.52.

In the case of FSFKVSRWMGLACFQSLAASSPSI [R15Q], the protein stability index was 5.05.

In the case of FSFKVSRWMGLACFTSLAASSPSI [R15T], the protein stability index was 2.79.

With FNFKVSRWMGLACFRSLAASSPSI [S2N], the protein stability index amounted to 2.32.

Consider FSFKVSRVMGLACFRSLAASSPSI [W8V], for which the protein stability index was 3.21.

As to FSFKVSRMMGLACFRSLAASSPSI [W8M], the protein stability index stood at 1.77.

Take FSFKWSRWMGLACFRSLAASSPSI [V5W]: the protein stability index came to 2.13.

Turning to FSFKVSRWMGLCCFRSLAASSPSI [A12C], the protein stability index was 3.26.

As for FSFKVSRWMGLFCFRSLAASSPSI [A12F], the protein stability index was 2.57.

As for FSFKVSSWMGLACFRSLAASSPSI [R7S], the protein stability index was 2.14.

As to FSFKVSWWMGLACFRSLAASSPSI [R7W], the protein stability index came out at 3.02.

With FSFKVSKWMGLACFRSLAASSPSI [R7K], the protein stability index came to 2.3.

As to FSFKVSYWMGLACFRSLAASSPSI [R7Y], the protein stability index stood at 2.52.

Turning to FSFKVSRWMGLACFRWLAASSPSI [S16W], the protein stability index was determined as 2.79.

On to FSFKVSRWMGLACFRGLAASSPSI [S16G], for which the protein stability index is 3.37.

With FSFKVSRWMGLACFRELAASSPSI [S16E], the protein stability index was 4.34.

For the variant FSFKVTRWMGLACFRSLAASSPSI [S6T], the protein stability index is 2.43.

FSFKVVRWMGLACFRSLAASSPSI [S6V]: the protein stability index stood at 4.41.

For FSFKVSRWMGLACFRSLACSSPSI [A19C], the protein stability index amounted to 1.8.

As to FSFKVSRWMGLACFRSLAMSSPSI [A19M], the protein stability index is 3.27.

With FSFKVSRWMGLACFRSLAGSSPSI [A19G], the protein stability index came out at 2.19.

In the case of FSFKVSRWMGLACFRSLAFSSPSI [A19F], the protein stability index is 1.36.

In the case of FSFKVSRWMGLACFRSLASSSPSI [A19S], the protein stability index is 3.28.

On to FSFKVSRWKGLACFRSLAASSPSI [M9K], for which the protein stability index turned out to be 2.21.

As for FSFKVSRWMGLACFRSVAASSPSI [L17V], the protein stability index is 2.84.

Turning to FSFKVSRWMGLACFRSMAASSPSI [L17M], the protein stability index was determined as 2.77.

Turning to FSFKVSRWMGLAIFRSLAASSPSI [C13I], the protein stability index was 2.56.

In the case of FSFKVSRWMGLACFRSLAASSNSI [P22N], the protein stability index is 3.22.

On to FSFKVSRWMGLACFRSLAASSCSI [P22C], for which the protein stability index worked out at 2.36.

Take FSFKVSRWMGLACFRSLAASSFSI [P22F]: the protein stability index was 2.51.

Turning to PSFKVSRWMGLACFRSLAASSPSI [F1P], the protein stability index is 2.2.

As for ASFKVSRWMGLACFRSLAASSPSI [F1A], the protein stability index turned out to be 2.36.

With GSFKVSRWMGLACFRSLAASSPSI [F1G], the protein stability index was determined as 2.57.

For WSFKVSRWMGLACFRSLAASSPSI [F1W], the protein stability index came to 2.34.

As to TSFKVSRWMGLACFRSLAASSPSI [F1T], the protein stability index was determined as 2.53.

As to YSFKVSRWMGLACFRSLAASSPSI [F1Y], the protein stability index stood at 2.33.

The values are drawn from the supplement of paper PMC10567573.
